Assay results taken from patent US20220143136A1, “USE OF ANNEXINS IN PREVENTING AND TREATING MUSCLE MEMBRANE INJURY” (NORTHWESTERN UNIVERSITY, priority 2018, published 2022).
Entries after “also recorded” stand apart in the source; their conditions may differ.

How the values were obtained:
myofibers [1] = test: Annexin repair cap formation after laser injury at multiple Ca2+ concentrations; type: cell-based, mouse; conditions: fluorescently tagged annexin expressed in myofibers; Ca2+ 0-2 mM; modified Hill equation
Protocol: (§1) Electroporation, myofiber isolation, laser injury, cap and vesicle measurement. Flexor digitorum brevis (FDB) fibers were transfected with endo-free plasmid DNA by in vivo electroporation. Methods were described previously in (Demonbreun and McNally, 2015; Demonbreun et al., 2016b; DiFranco et al., 2009). Z-stack projections were acquired from consecutive acquisitions after the final time-lapse frame, approximately 4 minutes post damage, with a […] step size between slices. Z-stack renderings were constructed in FIJI. Measurement of the cap area and feret diameter were conducted from a single slice near the middle of the z-stack using FIJI imaging tools. Fibers expressing similar levels of tagged or GCaMP5G protein were compared. GCaMP5G Ca^2+ fluorescence was measured from the acquired timelapse images, using a standard rectangular ROI, placed inside the myofiber below the site of damage using FIJI. Fluorescence was expressed as F/F0. External vesicle number and GCaMP5G area were measured from endpoint z-stacks and max projection images using FIJI. Vesicles were considered external if they were found outside the sarcolemma assessed in brightfield and fluorescent channels. All measurements were acquired from myofibers isolated from at least n≥3 mice, n≥3 myofibers per mouse.
Calcium kinetics. FDB muscle was electroporated and isolated as described above. Myofibers were damaged in Ringers solution with Ca^2+ concentrations of 2 mM, 1 mM, 0.5 mM, 0.25 mM, 0.175 mM, 0.1 mM, 0.050 mM, and 0 mM. EDTA was added as a Ca^2+ chelating agent in only in the 0 mM Ca^2+ Ringers. Myofibers were isolated directly into 2 mM, 1 mM and 0.5 mM Ringers for those experiments respectively. For experiments using less than 0.5 mM Ca^2+ myofibers were isolated in 0.5 mM Ca^2+ Ringers and then diluted with 0 mM EDTA-free Ca^2+ Ringers. For 0 mM experiments, myofibers were isolated in 0.5 mM Ca^2+ Ringers and then replaced with 0 mM Ca^2++EDTA Ringers just prior to imaging. Co-electroporation of wildtype annexin+wildtype annexin constructs was performed in one mouse foot, while the contralateral foot was co-electroporated with wildtype annexin+mutant annexin. All measurements were acquired from myofibers isolated from at least n≥2 mice, n≥3 myofibers per mouse at each Ca^2+ concentration. Area-Ca^2+ curves were fitted with a Hill Curve at Ca^2+ concentrations ranging from 0-2 mM. Kinetic parameters were calculated using Prism Graphpad.
as §1, with “(Demonbreun A R, Quattrocelli M, Barefield D Y, Allen M V, Swanson K E,” for “(Demonbreun”, “McNally E M. An actin-dependent annexin complex mediates plasma membrane repair in muscle. The Journal of cell biology. 2016; 213(6):705-18; Demonbreun A R, and McNally E M. DNA Electroporation, Isolation and Imaging of Myofibers. Journal of visualized experiments: JoVE.” for “McNally,”, “106(106):e53551;” for “Demonbreun et al., 2016b;”, “M, Quinonez M, Capote J, and Vergara J. DNA transfection of mammalian skeletal muscles using in vivo electroporation. Journal of visualized experiments: JoVE. 2009; 32(32)).” for “et al., 2009).”, “Vesicles were considered external if they were found outside the sarcolemma assessed in brightfield and fluorescent channels. All measurements were acquired from myofibers isolated from at least n≥3 mice, n≥3 myofibers per mouse.” left out

myofibers [2] = test: Bleb formation and intracellular Ca2+ fluorescence (GCaMP5G, Fluo-4) after laser injury with annexin overexpression; type: cell-based, mouse; conditions: for internal GCaMP5G Ca2+ fluorescence at the site of injury: vs GCaMP5G alone
Protocol: as §1
as §1, with “(Demonbreun A R, Quattrocelli M, Barefield D Y, Allen M V, Swanson K E,” for “(Demonbreun”, “McNally E M. An actin-dependent annexin complex mediates plasma membrane repair in muscle. The Journal of cell biology. 2016; 213(6):705-18; Demonbreun A R, and McNally E M. DNA Electroporation, Isolation and Imaging of Myofibers. Journal of visualized experiments: JoVE.” for “McNally,”, “106(106):e53551;” for “Demonbreun et al., 2016b;”, “M, Quinonez M, Capote J, and Vergara J. DNA transfection of mammalian skeletal muscles using in vivo electroporation. Journal of visualized experiments: JoVE. 2009; 32(32)).” for “et al., 2009).”
Calcium and pH indicator dye measurements. Wildtype FDBs were isolated and plated in Ringers on Matek glass-bottom dishes as described above. Twenty minutes prior to imaging, myofibers were loaded with Fluo-4 AM at 37° C. (F10489, ThermoFisher Scientific, Waltham, Mass.) or pHrodo AM (P35373, ThermoFisher Scientific, Waltham, Mass.) as described in the instruction manual. Fibers were rinsed once with Ringers then subsequently damaged and imaged on the Nikon A1R GaSP, as described above. Fluorescence intensity was measured using FIJI (NIH). phRodo change in fluorescence intensity was calculated as F/F0. Data was acquired from n=3 mice per experiment from multiple myofibers per mouse. […]

B1: annexin A6: annexin A6 with carboxyl-terminal turboGFP or tdTomato tag, expressed from plasmid electroporated into myofibers (protein, UniProt P14824 2-673, looked up)
Annexin A6: AKIAQGAMYRGSVHDFPEFDANQDAEALYTAMKGFGSDKESILELITSRSNKQRQEICQNYKSLYGKDLIEDLKYELTGKFERLIVNLMRPLAYCDAKEIKDAISGVGTDEKCLIEILASRTNEQMHQLVAAYKDAYERDLESDIIGDTSGHFQKMLVVLLQGTRENDDVVSEDLVQQDVQDLYEAGELKWGTDEAQFIYILGNRSKQHLRLVFDEYLKTTGKPIEASIRGELSGDFEKLMLAVVKCIRSTPEYFAERLFKAMKGLGTRDNTLIRIMVSRSELDMLDIREIFRTKYEKSLYSMIKNDTSGEYKKALLKLCGGDDDAAGQFFPEAAQVAYQMWELSAVSRVELKGTVCAANDFNPDADAKALRKAMKGIGTDEATIIDIVTHRSNAQRQQIRQTFKSHFGRDLMADLKSEISGDLARLILGLMMPPAHYDAKQLKKAMEGAGTDEKTLIEILATRTNAEIRAINEAYKEDYHKSLEDALSSDTSGHFRRILISLATGNREEGGENRDQAQEDAQVAAEILEIADTPSGDKTSLETRFMTVLCTRSYPHLRRVFQEFIKKTNYDIEHVIKKEMSGDVKDAFVAIVQSVKNKPLFFADKLYKSMKGAGTDEKTLTRVMVSRSEIDLLNIRREFIEKYDKSLHQAIEGDTSGDFMKALLALCGGED
modifications: C-terminal turboGFP or tdTomato tag
notes: annexin A6 with carboxyl-terminal turboGFP or tdTomato tag, expressed from plasmid electroporated into myofibers
Km1/2 (repair cap area as a function of Ca2+ concentration) (myofibers [1]): 0.12 mM
internal Fluo-4 Ca2+ fluorescence at the site of membrane injury (myofibers [2]; annexin A6 overexpression vs control myofibers): Reduction; also recorded: significantly decreased
size of GCaMP5G-containing blebs (myofibers [2]; annexin overexpression vs annexin A1, A2 or GCaMP5G alone): significantly larger
number of extracellular (GCaMP5G-positive) blebs at the membrane lesion (myofibers [2]; annexin overexpression vs annexin A1 overexpression or GCaMP5G alone): significantly more blebs
internal GCaMP5G Ca2+ fluorescence at the site of injury (myofibers [2]; first 20 seconds post injury): significant reduction
internal GCaMP5G Ca2+ fluorescence at the site of injury (myofibers [2]; over 240 seconds of imaging): most significant reduction
internal GCaMP5G Ca2+ fluorescence at the site of injury (myofibers [2]; over 240 seconds of imaging, listed as A6): significant reduction
